Experimental data reported in the supplement of paper PMC10567573.

B1: ZC3H15 (parent)
chain: RKADFKAGKALVISGREVFEFRPE

Variants of: B1
Assay: protein stability index of a GFP-peptide fusion (GPS, HEK-293T) (PSI 1-6); higher = more stable
Conditions: c terminus: a fixed tail appended
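Note: lentivirally expressed fusions sorted by FACS into six bins by GFP to DsRed ratio, PSI derived from sequencing read proportions per bin multiplied by bin number.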

Protein stability index: each site, then its substitutions
A10: M 2.09, G 2.86, P 3.73, W 2.97, C 2.12, H 2.75, Q 3.17, I 2.09, Y 1.92, F 1.53, E 2.97, N 3.16, D 3.5, K 2.47, T 2.88, V 2.49, R 3.09, S 2.86, L 2.09
K9: M 2.31, V 2.48, Q 2.65, W 1.87, Y 1.05, G 2.28, T 3.04, D 3.18, C 2.33, L 1.99, I 1.57, S 3.16, N 3.16, P 2.78, H 2.93, F 1.7, E 3.11, A 3.02, R 2.31
E17: H 1.9, T 1.75, D 2.88, A 1.47, F 2.17, N 2.57, C 1.71, I 1.64, M 1.14, W 2.12, G 2.3, Y 2.19, R 2.67, S 2.06, P 2.66, Q 1.96, L 2.04, V 2.25, K 2.08
F21: M 3.29, I 2.68, Q 4.23, A 3.05, K 3.58, Y 3.21, E 4.46, T 3.73, P 3.69, G 4.2, V 3.5, R 3.48, D 4.04, H 3.57, C 3.78, L 2.82, W 2.85, N 3.73, S 3.91
V12: P 3.82, L 2.42, F 2.39, I 2.85, T 2.68, R 3.31, G 3.17, H 3.52, Y 2.73, N 3.93, E 3.49, K 2.91, M 3.26, W 2.4, D 4.03, C 2.89, S 3.47, Q 3.15, A 3.23
R16: S 3.21, G 2.99, E 3.7, F 1.65, D 3.69, Y 1.54, A 2.71, C 1.89, L 2.42, M 2.08, H 2.98, W 1.92, T 2.99, V 1.91, K 3.38, Q 3.61, N 3.63, I 1.92, P 3.27
I13: H 3.13, T 3.21, C 3.2, R 3.89, F 2.32, E 4.28, W 2.8, V 3.51, D 4.17, S 3.8, P 3.48, K 3.79, Q 3.72, N 3.95, G 4, Y 2.77, A 3.86, M 3.26, L 3.55
G8: I 2.23, C 2.14, W 1.79, E 2.99, A 2.94, F 1.93, Y 1.74, N 3.3, S 2.7, L 1.92, M 2.59, T 2.78, P 2.65, R 2.52, D 3.31, V 2.16, K 3.24, Q 2.85, H 2.66
S14: L 1.57, M 2.49, Q 2.81, R 2.56, T 2.98, D 3.82, F 1.23, C 1.21, N 2.66, P 3.44, G 3.11, H 3.31, W 1.87, I 1.93, K 3.32, V 1.43, Y 2.39, E 3.67, A 2.86
D4: W 1.73, V 2.2, T 1.98, Y 2.12
F19: N 4.05, D 4.68, W 2.43, I 3.51, E 4.23, K 3.47, V 3.25, S 3.51, Y 2.75, R 4.24, G 3.7, P 4.08, L 3.33, T 3.7, M 3.43, Q 3.63, H 4.13, A 4.01, C 3.76
L11: Q 3.66, T 3.76, F 2.65, P 3.54, K 3.77, D 3.69, C 3.09, E 3.78, A 3.06, Y 2.29, I 2.72, H 3.36, W 2.55, N 4.1, S 3.69, R 2.95, V 3.11, G 3.46, M 2.84
K6: Q 2.44, M 2.36, E 3.24, R 2.29, L 2.29, A 2.71, N 3.22, I 2.42, F 1.79, G 2.4, Y 2.87, C 2.79, S 2.82, H 2.6, V 3.03, D 3.75, W 2.4, T 2.99, P 2.72
E20: T 2.73, I 1.71, F 1.96, P 2.62, G 3.1, H 2.13, Y 1.66, W 1.61, A 2.5, L 2.51, K 2.68, S 2.1, M 2.27, C 2.68, N 2.81, V 2.34, R 3.14, Q 2.74, D 3.37
R22: H 2.72, C 2.24, G 3.4, F 2.98, D 3.72, A 3, E 3.53
F5: K 3.47, Q 3.8, E 4.18, P 3.25, W 2.48, D 3.77, V 3.6, G 4.05, T 3.59, A 3.91, S 3.77, R 3.76, M 2.85, L 3.93, Y 3.16, I 2.94, C 3.55, H 3.77, N 3.38
A7: F 2.21, G 2.86, Y 2.18, C 2.35, R 2.85, L 2.08, H 2.75, D 3.12, Q 2.93, E 2.86, N 3.11, I 2.66, S 3.26, M 2.46, K 3.67, T 3.12, W 1.71, V 2.91, P 3.2
G15: K 3.14, R 2.73, T 2.93, S 3.18, I 2.37, A 2.64, Y 1.85, D 3.38, C 2.07, E 3.65, Q 2.92, F 2.27, M 2.04, W 1.37, L 1.81, V 2.06, P 3.37, H 2.2, N 3.4
V18: L 2.72, R 3.58, H 3.22, F 2.68, W 2.86, I 2.95, T 3.32, Y 2.74, A 3.33, G 3.37, C 2.95, M 2.8, P 3.05, S 3.34, D 3.69, N 3.61, Q 3.46, E 3.89, K 3.56
